# The supplement of paper PMC10567573
# ± gives the standard deviation.
# Experiment: protein stability index of a GFP-peptide fusion (GPS, HEK-293T) (PSI 1-6); higher = more stable
# [1] = treatment: DMSO, c terminus: a fixed tail appended
# [2] = treatment: MLN4924 1 uM, 8 h, c terminus: a fixed tail appended
# [3] = treatment: DMSO, c terminus: native
# [4] = treatment: MLN4924 1 uM, 8 h, c terminus: native
# 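Also: 24-mer peptide tiles fused after GFP, lentivirally expressed, FACS-sorted into six equal bins by GFP/DsRed ratio, decoded by Illumina sequencing, PSI is the read-weighted mean bin number.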
Sequence,protein stability index [1],protein stability index [2],protein stability index [3],protein stability index [4]
TMDNKKGRRYEAVKWMVVFAIGVC [CLCN6],2.58 ± 0.35,2.64 ± 0.82,,
ANMEDLTEVITASEFHPHHCNLFV [PPP2R2C],2.49 ± 0.3,2.41 ± 0.24,,
NPLICPVCTKYNLRITSGVVVCQC [RPAIN],3.91 ± 0.32,4.16 ± 0.25,,
ILLLDGAAWLTLWVFGTSFLPFLL [FADS1],2.91 ± 0.062,3.17 ± 0.46,,
EKYGRAHPVFYQGTYSQALNDAKR [FAF2],3.28 ± 0.15,3.47 ± 0.37,,
YLPSTEFSVSSTSRRIYRCRNCIN [IQUB],2.62 ± 0.31,3.61 ± 0.38,,
IVSILPYFITLGTDLAQQQGGGNG [KCNA4],2.92 ± 0.36,2.54 ± 0.23,,
KKTGKSSTTALGDKQRKANESKGT [ELOA2],5.26 ± 0.36,5.22 ± 0.17,,
YGFYLRAGSEQKGQIIKDIDSGSP [PDZK1],3.2 ± 0.17,3.17 ± 0.36,,
MTKAGSKGGNLRDKLDGNELDLSL [LRRC59],4.63 ± 0.15,4.63 ± 0.081,,
KKLHEEELRDLQVSVESQQVQQVE [PRPH],4.13 ± 0.62,4.2 ± 0.13,,
RRILDELTLCRSDLEAQMESLKEE [KRT33B],4.56 ± 0.14,4.66 ± 0.11,,
LLNSPPSFVCWSRGFMEMNGRGEL [AUP1],2.1 ± 0.52,2.07 ± 0.46,,
LVAPVLEPGKQERDVYLPAGKWRS [MYORG],3.49 ± 0.16,3.75 ± 0.2,,
IVVATLPIPVVFVLRHFHLLSDGS [SLC6A17],2.92 ± 0.56,3.21 ± 0.24,,
LWEALCSQGAISEGAQRDRFPGRK [C22orf31],3.11 ± 0.12,3.3 ± 0.32,,
FKLFFNGRPGIVAWTLINLSFAAK [DHCR7],3.03 ± 0.28,2.46 ± 0.31,,
SSHKQGHTSSEYDMLREMFSDSRS [TAF7L],4.11 ± 0.21,4.13 ± 0.26,,
VKLGPALTPHIVQYQANKVTHTLT [PPEF2],2.35 ± 0.34,2.2 ± 0.42,,
LEPVKKSRLQLLGATCMFVASKMK [CCND1],2.23 ± 0.16,2.12 ± 0.41,,
ASVINNMLAEIFCQTGGVEDQEEW [ZBED1],3.31 ± 0.31,3.89 ± 0.33,,
IDNSSEIEDEDQILENSSQKENVF [FAN1],5.39 ± 0.28,5.2 ± 0.56,,
QEWSFLPSITRKRRYVASVSLHDR [KLHL12],2.41 ± 0.11,2.51 ± 0.33,,

Sequence,protein stability index [1],protein stability index [2],protein stability index [3],protein stability index [4]
VDGKTIKAQIWDTAGQERYRAITS [RAB11A],3.34 ± 0.19,3.68 ± 0.22,,
TCLMMDMKACQEDDVRLLCHLTPS [INTS3],2.69 ± 0.17,2.73 ± 0.33,,
VTMSSLFKHILRTEGAFGLYRGLA [SLC25A25],2.5 ± 0.69,2.65 ± 0.51,,
KQTREQLHSISDSVLFLQEFGALM [TRIM29],2.44 ± 0.52,2.36 ± 0.34,,
VWNMTATRPKKMGSQLPKPRMLRE [FATE1],2.94 ± 0.24,3 ± 0.12,,
EPGPRPALQPSPSIRLPLDAPLPG [TBC1D10A],4.97 ± 0.28,5.06 ± 0.26,,
CKACITRWWEDLERDFPCPVCRKT [TRIM39],3.97 ± 0.27,4.25 ± 0.62,,
GTLLFYIGGHLVRDNDHPDHSSRE [FUT8],2.3 ± 0.59,2.55 ± 0.58,,
QGHPQTGCECEDGPDGQEMDPPNP [GAGE1],5.39 ± 0.33,5.67 ± 0.14,,
LLQDKQFELALQLAEMKDDSDSEK [VPS39],5.19 ± 0.23,5.17 ± 0.26,,
LTDDKQVLNTQGQKTSGQHMIQGA [DLC1],5.06 ± 0.2,5.04 ± 0.14,,
CLDSPGPLDSKENLENPMRRIHSL [CDC25A],4.27 ± 0.19,3.91 ± 0.26,,
VKEDDKLIFHRHPVAQSTDAIRGK [SPSB1],4.56 ± 0.25,4.69 ± 0.25,,
DVHNRIVIRGLNTIPLFVQLLYSP [CTNNB1],2.58 ± 0.58,2.73 ± 0.5,,
DKDENKLSEASGGRAENGERSDLE [ZC3H15],5.45 ± 0.24,5.45 ± 0.28,,
EDKENYKKFYEAFSKNLKLGIHED [HSP90AB1],4.08 ± 0.34,4.22 ± 0.25,,
FLMRKCGWFVRELRVEFAAENYLS [FBXO33],3.06 ± 0.59,2.8 ± 0.35,,
RSRLRPRDDLDRLGVFLDYEAGVL [TRIM14],2.47 ± 0.4,2.59 ± 0.48,,
ASKMESTIKPRRVEPVCSGLQAQI [CHCHD6],3.47 ± 0.17,3.6 ± 0.24,,
VLEAKMTMLTVIEQPVPPTPATPE [EMID1],3.72 ± 0.38,3.89 ± 0.24,,
EHPEALSCLLLQLRREKPSEEMVK [INTS3],3.38 ± 0.43,3.57 ± 0.26,,
GYPVSSAFAFQNTFPHSISAKNTS [SASS6],3.19 ± 0.43,3.37 ± 0.21,,
TITIGMFPAVTVEVKSSIAGSSTW [SLC29A1],2.58 ± 0.6,2.4 ± 0.5,,

Sequence,protein stability index [1],protein stability index [2],protein stability index [3],protein stability index [4]
LPAEVAGLSQVLLRGGGQVLLGWT [POMT2],2.26 ± 0.54,2.26 ± 0.14,,
KPPKPPDKPLMPYMRYSRKVWDQV [SMARCE1],2.08 ± 0.33,2.53 ± 0.36,,
LPHDFIDSLEKTDDDKYKITLKYP [NLN],3.7 ± 0.3,3.13 ± 0.089,,
DQTKSIVEKIQAKLPGIAKKKAE [RTN3],,,5.46 ± 0.17,5.56 ± 0.22
VPDGLGLDEAREEEGDREVVLYG [TRIB3],,,4.96 ± 0.33,5.26 ± 0.28
AAFLALLRFLYSDEVQIGPETVMT [BTBD1],2.49 ± 0.78,2.14 ± 0.004,,
VDNISTLDSEIKKNSDGMEAAGVQ [CD207],5.4 ± 0.37,5.49 ± 0.23,,
GKAVVSHSKGHKSSRQEKRPLCAQ [ELOA2],4.61 ± 0.29,4.64 ± 0.44,,
KASLWQFLSSEKQICGTHRQTKKM [TRIM43],2.63 ± 0.27,2.71 ± 0.24,,
RIIDKPRVIEVLPRGATAAVLAPD [SEPHS2],3.88 ± 0.23,4.08 ± 0.068,,
NVYPEMRVYNNTLTYGEVRNSKAS [GALNT9],3.94 ± 0.22,4.14 ± 0.3,,
RDHSVRVLISNHVTPFDHNIVNLL [AUP1],2.1 ± 0.16,2.12 ± 0.31,,
KVLGELNILPNTQKVTCFYQPAPY [TENT5D],2.5 ± 0.23,2.16 ± 0.3,,
LTEDYFPSVPDNAELVLLTLGQAW [DFFB],2.34 ± 0.23,2.34 ± 0.22,,
KLPRKVLQHVSEPQAHQESTRGAA [SPACA9],4.59 ± 0.13,4.76 ± 0.17,,
AEEYDEKTSELLVRKWRVKSALGA [DPCD],3.34 ± 0.36,4.04 ± 0.29,,
SRFISANLPCNKFKNRLVNIMPYE [PTPRD],2.13 ± 0.42,1.98 ± 0.13,,
SIEYDSEPFGKERDAAIKKLATEA [CRY1],5.18 ± 0.14,4.87 ± 0.7,,
SFGWSDRAKVKTDDIARIYQPKRY [FAM98B],2.9 ± 0.38,2.99 ± 0.54,,
GGPGGPGSDKQQQQQHIECVVCGD [NR2F2],5.02 ± 0.21,5.02 ± 0.45,,
RGYWGDIATGPFVAFGIEADDESL [DNAAF3],3.65 ± 0.22,3.65 ± 0.43,,
KRYGLGAHRGRLNIQAGINENDFY [CPXM2],2.45 ± 0.44,2.61 ± 0.28,,
GFRYSERYDPEPKSKWDEEWDKNK [CLINT1],3.73 ± 0.24,3.78 ± 0.29,,

Sequence,protein stability index [1],protein stability index [2],protein stability index [3],protein stability index [4]
PANCPACREPSPKMDFKTNILLKN [TRIM43],3.38 ± 0.25,3.52 ± 0.21,,
WDIGRGKLYHQSKGPGAPQYPAGT [SPSB2],3.72 ± 0.095,3.53 ± 0.07,,
WDPSVQSCKEGLSPRGPAPGEEKF [ZNF263],5.43 ± 0.1,5.46 ± 0.092,,
ANQKLSEKLAAGALPHINARGPVR [CCDC3],3.62 ± 0.43,3.86 ± 0.77,,
VEIVKSDFHKPFLGGFRHKVTGVE [IQUB],2.17 ± 0.23,2.5 ± 0.39,,
FEAYAKICDPGLTSFEPEALGNLV [CAMK2B],2.71 ± 0.37,2.76 ± 0.32,,
FFVITMIKIVLINSFGAILQGSLF [SLC29A1],3.36 ± 0.093,2.99 ± 0.12,,
NLPSGGKGFKLRRQPSEPKRSCC [RAB22A],,,3.89 ± 0.34,4 ± 0.35
LAARSGAAYGPGARGEDRAGPQSP [TSPAN10],5.15 ± 0.22,4.9 ± 0.09,,
EQHGKKVPTVSRPYSFIEFDTFIQ [SEC22B],2.75 ± 0.28,2.95 ± 0.26,,
YAILDEKKSELLQRITQEQEKKLS [TRIM63],4.35 ± 0.17,4.52 ± 0.13,,
TDRGNDNWLIKYDCPMDSSSSRDT [PI4K2A],4.44 ± 0.2,4.42 ± 0.075,,
WEFKLSDPDEVARRWGKRKNKPKM [ETS1],3.65 ± 0.27,3.67 ± 0.067,,
QTLLGTAKMLLHEGQHPAQLRSDV [PYCR3],3.28 ± 0.094,3.16 ± 0.39,,
LHELSSRVEASHLTTSQERELGIR [FBF1],4.46 ± 0.17,4.36 ± 0.25,,
GEEQTQNPYTELLVLKAHHDIVRF [WDR41],2.51 ± 0.32,2.79 ± 0.3,,
SVDDIESETGSTGALETRSLKDHK [C2CD2L],5.52 ± 0.3,5.43 ± 0.27,,
DDAVAGDFALINKLDIQCDLKTLS [ATE1],4.18 ± 0.34,4 ± 0.17,,
FSDSSLIEDSQALHKRPKLDSEYY [LURAP1L],3.86 ± 0.35,3.9 ± 0.21,,
APVPTHSTVSELSRSPVATATSC [DUSP5],,,2.72 ± 0.17,2.86 ± 0.13
